Reference: the DeepSol protein solubility set

experiment: soluble on expression in E. coli; label from the status in PepcDB or PDB records

Sequence | soluble on expression in E. coli
MTTRRLALFDLDHTLLPLDSDYQWADFLARTGRAGDPAEARRRNDDLMERYNRGELTAEQAAEFMLGLLAAHSPVELAAWHEEFMRDVIRPSLTAQAVDVVRGHLAAGDLCALVTATNSFVTAPIARAFGVQHLIATDPEYRDGRYTGRIEGTPSFREGKVVRVNQWLAGMGLALGDFAESYFYSDSVNDVPLLEAVTRPIAANPSPGLREIAQARGWQVIDLFDHLEDAKS | not soluble
MTTSHRPQLEARSGAKAAAYTPTGIEHARLLPGHTTLKYRKFKEEENLRANCAQEDRSNDKSLEEAVMNEEKQDVVGSGNLQETRSEKDQKDSLQELLVTQKNKVEDKAELEGNEQLKGGNSSRRSWRKGTAFGRHKVTKETNIKEHATKKSASGYINDMTKSEYHQEFLHKHVR | not soluble
MTTSTKLVELLYQLEAQLQKHELWQQTMPSPEALQSVEPFAIDTLDPHEWLQWIFIARMHALVESSQPLPRGFSIEPYFAEVWKQEPQYAELLNTIRTIDELCKLEHHHHHH | not soluble
MTTTKANLTEFEQQLVDKAIGAMENAYCKYSNFKVGAALVCDDGEIIIGANHENASYGATICAERSAIVTALTKGHRKFKYIVVATELEAPCSPCGVCRQVLIEFGDYKVILGSSTSDQIIETTTYELLPYAFTPKSLDDHEKETEERKHHNDHNNKE | not soluble
MTTTLSPDTARQIVPPEERYAAELAFLAAYDDGPRPPAWRLTPRAVVTFVMGSDGRALRLPEGAETPEGVPRRLTVEGKFVGDRSLVERCVVTLAGERGLLLVGEPGTAKSMLSELLSAAVCGTSGLVVQGTAGTTEDQLKYGWNYALLLAQGPSRTALVPSPVLTAMARGGIARVEEVTRCLPEVQDALVSLLSERRIAVPELSGTDDALAHAAPGFNLIATANLRDKGVSEMSAALKRRFNFETVGPIPDLDAETALVRSQARASVERAGAPFKVDEAVLEALVVAFRDLREGRSTEGWEVERPSTVMSTAEAVSVAGALGLAAAYFPGDRDVLGLLPGHLLGVVRKDDPADAARLRGYWDGPVRRRAEQGSATWRTLWDLRTVLEGLEHHHHHH | not soluble
MTTTMSTLPVVLVDEILARVPITSLRSLRSTCKKWEASSKTNLVGGKATARKSSHVGFILIGDKICSMKLDLNGGDDFVDTSVNQVSAFDGFAISQLFHCDGLLFCISNNHYSNYTLMVCNMYLGETRLIQNRSLFESYQNFCSYAFGYDSSKNRNHKILRNNSVSGGYEIYSLKSDSWKDLNVDLEKSIHLWRLGSVSLKGNAYFRVIKVIEEGVWEYNLLCFDFTRESFGKLLSLPFESLGDEGEGIMVISCVRDDHLAVLYQRDTLGIWISTEIEPNKVSWREFLQVDLATLDGFPDVFIAGRFIVDEEKQVVVVFGQETELDLNHGNAFIFGRDGYFTSFTVGDAPPEDFTSYVPSLVSLQIDKTGKRKARDD | soluble
MTTVSEQANFTFSPEEVARFERDGYIGPVKIFEPEEMTRRWNIIRRQLLDRSLAIYPDSNGKANISNYDRHLDIDLLAEHIMRPEIVDRVGSLIGRNLLCWRSEFFPKYQGDEGTDWHQAATFAHATGKPQIIWPSDEGRPAFIGTITVWTAFTHSTEQNGCLQLMPGTHTSMNYDESKGMDYDADAINQREKDGIKRGFFGYDYRSLQKDPDWKPDESQAYPMVLKPGEAVIFWSNTMHASLPHTGSKTDYRMGFAARYVPTQVQVYPGTENLTEYGDGINLEKYGAVLTSGVDEYGHNRIARTSQRGYEFVPRQIPS | soluble
MTVDDIMVPRSEIIGIDINDDWKSILRQLSHSPHGRIVLYRDSLDDAISMLRVREAWRLMSEKKEFTKETMLRAADEIYFVPEGTPLSTQLVKFQRNKKKVGLVVNEYGDIQGLVTVEDILEEIVGDFTTSMSPTLAEEVTPQNDGSVIIDGTANVREINKAFNWHLPEDDARTVNGVILEALEEIPVAGTRVRIGKYDIDILDVQDNMIKQVKVFPVKPLRESVAE | not soluble
MTVDTEKQQVVRPRNEIAAADCWDVSPLYPNREDWKADLDSFGLKTDGSPTWPELQATQYQLEDSESLLSLLTKLFSVERKLDKLYVYAHLVHDQDITNQEGVADLKSITHLHILFSEEISWIQPALIGLSEPIIAQHLSAPCLAPYRFYLEKIFRLSMHTGTPGEEKILASAFAPFEVASKAFSSLSDSEIPFGQAMDSEGNSHPLSHALASLYMQSTDRELRKTAYLAQCERYYNYRHTFANLLNGKIQAHLFYAKNKKYGSCLESALYHNNIPTTVYTNLMDIVKKNASLITKYYSLKQKALNIKDFHFYDVYAPLSQSEEKKYSYEEAVDLIYDSLSPLGTEYVDILKQGLTTEGWVDKYENLNKRSGAYSSGCYDSYPYILLNYTGTLYDVSVIAHEGGHSMHSYFSRKNQSFHDAQYPIFLAEIASTLNEMLLMDSMLKKSNSKEEKITILTRCLDTIFSTLFRQVLFASFEYEVHSAAEQGIPLTEEYLSSTYKNLQNDFYGGIITFDTLSNIEWARIPHFYYNFYVYQYATGIIAALCFAERILNKEDNALESYMNFLKSGGSDFPLEILKKSGLDMATSEPIYKAFSFIERKIQELSSLI | soluble
MTVIVGPKTKPPEAIKDASMARQKQMVNAHYDRLASAKERGEKVAATFVPGNLNELLMCFDMVNNLPEVNAIQNGLRRQSGGYVMEAEKLGHSEDVCTYVKSDIGMMAKGNIGPNGKPLPDPDVLLLSYTGCFTFMKWFELLRRQYKCETIMFQTPYLADGRITKDMISYMVKQLRQDVIPKLERISGVKFDIDRLREYLRKSAKAEDDHVWVLQSAKHKPSPIDAYFGGIYYIGPIFGAFRGTDDAIEYYKFLRAEVEQRIAQGKGPVTPDGDMGQERYRLVVEGPPNYTNFRQFWKMFYDEGAVVVASSYTKVGGTYDYGFRHDPDRPLESLAEYCLNVYTNRNLPMRVDMLENYINEYEADGLLINSIKSCNSFSAGQLLMMREVEKRTGKPAAFIETDLVDPRYFSAANVKNRLESYFQMIEQKRAGFRGAA | not soluble
MTVIYQTTITRIGASAIDALSDQMLITFREGAPADLEEYCFIHCHGELKGALHPGLQFSLGQHRYPVTAVGSVAEDNLRELGHVTLRFDGLNEAEFPGTVHVAGPVPDDIAPGSVLKFESVKE | not soluble
MTVNDKKRLAIIGGGPGGLAAARVFSQSLPNFEIEIFVKDYDIGGVWHYPEQKSDGRVMYDHLETNISKKLMQFSGFPFEENVPLYPSRRNIWEYLKAYYKTFIANKDAISIHFSTEVTYLKKKNSQWEITSKDELRTTKSDFDFVIVASGHYSVPKLPTNIAGLDLWFDNKGAFHSKDFKNCEFAREKVVIVVGNGSSGQDIANQLTTVAKKVYNSIKEPASNQLKAKLIETVQTIDSADWKNRSVTLSDGRVLQNIDYIIFATGYYYSFPFIEPSVRLEVLGEGVTGDKHSSVNLHNLWEHMIYVKDPTLSFILTPQLVIPFPLSELQAAIMVEVFCKSLPITTTFDSNACGTHNFPKERTWNTMQNYRNY | soluble
MTVPPTATHQPWPGVIAAYRDRLPVGDDWTPVTLLEGGTPLIAATNLSKQTGCTIHLKVEGLNPTGSFKDRGMTMAVTDALAHGQRAVLCASTGNTSASAAAYAARAGITCAVLIPQGKIAMGKLAQAVMHGAKIIQIDGNFDDCLELARKMAADFPTISLVNSVNPVRIEGQKTAAFEIVDVLGTAPDVHALPVGNAGNITAYWKGYTEYHQLGLIDKLPRMLGTQAAGAAPLVLGEPVSHPETIATAIRIGSPASWTSAVEAQQQSKGRFLAASDEEILAAYHLVARVEGVFVEPASAASIAGLLKAIDDGWVARGSTVVCTVTGNGLKDPDTALKDMPSVSPVPVDPVAVVEKLGLA | soluble
MTVTIKELTNHNYIDHELSATLDSTDAFEGPEKLLEIWFFPHKKSITTEKTLRNIGMDRWIEILKLVKCEVLSMKKTKELDAFLLSESSLFVFDHKLTMKTCGTTTTLFCLEKLFQIVEQELSWAFRTTQGGKYKPFKVFYSRRCFLFPCKQAAIHQNWADEVDYLNKFFDNGKSYSVGRNDKSNHWNLYVTETDRSTPKGKEYIEDDDETFEVLMTELDPECASKFVCGPEASTTALVEPNEDKGHNLGYQMTKNTRLDEIYVNSAQDSDLSFHHDAFAFTPCGYSSNMILAEKYYYTLHVTPEKGWSYASFESNIPVFDISQGKQDNLDVLLHILNVFQPREFSMTFFTKNYQNQSFQKLLSINESLPDYIKLDKIVYDLDDYHLFYMKLQKKI | soluble
MTVYFIGAGPGAADLITVRGQRLLQRCPVCLYAGSIMPDDLLAQCPPGATIVDTGPLTLEQIVRKLADADADGRDVARLHSGDPSLYSALAEQCRELDALGIGYEIVPGVPAFAAAAAALKRELTVPGVAQTVTLTRVATLSTPIPPGEDLAALARSRATLVLHLAAAQIDAIVPRLLDGGYRPETPVAVVAFASWPQQRTLRGTLADIAARMHDAKITRTAVIVVGDVLTAEGFTDSYLYSVARHGRYAQ | not soluble
MTWLDEKGRFAIYEAPQNCPYLGTIGACYEFGSLPVILMFPELEKSFLKLLIRHIREDGYVPHDLGYHSLDSPIDGTTSPPRWKDMNPSLILLVYRYFKFTNDIEFLKEVYPILVKVMDWELRQCKGNLPFMEGEMDNAFDATIIKGHDSYTSSLFIGSLIAMREIAKLVGDSNYVDFISEKLSSAREAFRRMFNGRYFKAWDSVDNASFLAQLYGEWFTTLVGLEDIVEEDIIKKALESIIRLNGNASPHCVPNLVDDNGKIVGLSVQTYSSWPRMVFAICWLAYKKGVGDLSFCKKEWDNLVKNGMVWDQPSRINGYNGKAEMNYLDHYIGSPSPWSFLFLEHHHHHH | not soluble
MTWQPFYVGTGQAPAGAEEQVVLPPAPPWREFPRRSQHRQFVPPPRLAEAVNAALALRRPLLVTGPAGSGKSTVIEQVAAELALGDVLRWHITSRSSLAEALYRYDALGRIHAQRLEGPGGSDDIAPFLRMGPLGTALLPSARPRALLIDEIDKSDLDLPSDLLDVLERGEFEIPELARYGTDVVPVREHGGERTHLIARGRVQCAEFPFIVMTSNGDRDFPAAFLRRCIRFTMPLPTPETLLRVVEAHMGPEKAAADETGRLITVFLERLTAGESLAVDQLLNAVHLLTGDGAPGDDRRQAIAELILRELSHALEHHHHHH | not soluble
MTYETVERSKKSQVNLNNKEPFSVLLLGIDTGDDGRVEQGRSDTTIVATVNPRDKQTTLVSLARDTYVDIPGQGKQDKLNHAYAFGGASLAMDTVENYLNIPINHYVSINMAGLKELVNAVGGIEVNNNLTFSQDGYDFTIGKISLDGEQALSYSRMRYEDPNGDYGRQERQRKVIEGIVQKVLSLNSVSNYQEILTAVSDNMKTDLSFDDMKKIALDYRSAFGKVKQDQLQGTGFMQDGVSYQRVDEQELTRVQQELKNQLNTKLEHHHHHH | soluble
MTYIIREMKQEDIHAVQSVAKIAWHDTYEGIIPREIQDSFLDEAYSDEKMKYRLKNTHLFVAEEEGEVIGFANFSPVRLQNEAELGAIYLLPDQQGKGIGSALLQRGIKALNGIRKLYIHVEAANEKGKRFYEAKGFAELEQFEEDFEGHMMQTVRMVLYV | not soluble
MVAENQPGHIDQIKQTNAGAVYRLIDQLGPVSRIDLSRLAQLAPASITKIVREMLEAHLVQELEIKEAGNRGRPAVGLVVETEAWHYLSLRISRGEIFLALRDLSSKLVVEESQELALKDDSPLLDRIISHIDQFFIRHQKKLERLTSIAITLPGIIDTENGIVHRMPFYEDVKEMPLGEALEQHTGVPVYIQHDISAWTMAEALFGASRGARDVIQVVIDHNVGAGVITDGHLLHAGSSSLVEIGHTQVDPYGKRCYCGNHGCLETIASVDSILELAQLRLNQSMSSMLHGQPLTVDSLCQAALRGDLLAKDIITGVGAHVGRILAIMVNLFNPQKILIGSPLSKAADILFPVISDSIRQQALPAYSQHISVESTQFSNQGTMAGAALVKDAMYNGSLLIRLLQG | soluble
